Kd data for one molecule are collected here from patent US20080044420A1 (published 2008).

Usually Kd stands for the free concentration of one partner at which half of the binding sites on the other are occupied at equilibrium, for simple one-to-one binding. Lower therefore signals higher affinity.

For this experiment, the target named is T1, human IL-13R130Q (human, UniProt P35225 35-146, mildly biotinylated (approximately 1-2 molecules per molecule IL-13R130Q) in ELISA screens and receptor binding assays; not biotinylated when amine-coupled to the Biacore chip ; Mildly biotinylated …).
T1 construct: also called IL-13 R130Q variant; biotinylated IL-13R130Q
T1 sequence (P35225 35-146 limits assumed): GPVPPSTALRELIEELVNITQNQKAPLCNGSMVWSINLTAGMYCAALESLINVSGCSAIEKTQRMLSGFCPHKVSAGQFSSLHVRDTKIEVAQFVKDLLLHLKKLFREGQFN
Put plainly: method and antigen form not given. The protocol: Affinity determination by surface plasmon resonance (BIAcore™). […] F1 chips (Biacore, Sweden) were coated with ˜800 RU IL-13R130Q (250 μg/ml, 10 mM acetate buffer, pH 4.0) and respective amount of HSA (20 μg/ml/10 mM acetate buffer, pH 4.5) to the reference flow cell, using standard EDC-NHS amine coupling chemistry. Due to the instability of the antigen on the chip a freshly prepared chip was used for every measurement. Regeneration was done with 2×5 μl pulses of 10 mM HCl. All kinetic measurements were performed in PBS buffer (136 mM NaCl, 2.7 mM KCl, 10 mM Na₂HPO₄, 1.76 mM KH₂PO₄ pH 7.4) at a flow rate of 20 μl/min using Fab concentration range from 1.5-500 nM. Injection time for each concentration was 1 min. All sensograms were fitted globally using BIA evaluation software 3.1. Abbreviations: EDC 1-Ethyl-3-(3-Dimethlaminopropyl) carbodiimide; NHS N-hydroxysuccinimide; RU Resonance Units

Where only a bound is given, the exact number is not on record here.

B1: lead candidate SEQ ID NOS:48-49 (HC AA50 Gly, AA54 Asp, AA56 Ser; LC AA1 Ser, AA2 Tyr) (Fab, V domains shown)
VH: QVQLVESGGGLVQPGGSLRLSCAASGFTFNSYWINWVRQAPGKGLEWVSGIAYDSSNTLYADSVKGRFTISRDNSKNTLYLQMNSLRAEDTAVYYCARGLGAFHWDMQPDYWGQGTLVTVSS
VL: SYELTQPPSVSVAPGQTARISCSGDNIGGTFVSWYQQKPGQAPVLVIYDDNDRPSGIPERFSGSNSGNTATLTISGTQAEDEADYYCGTWDMVTNNVFGGGTKLTVL
notes: also called final lead candidate
Molecule B1 returned an equilibrium dissociation constant (Kd) of under 10 µM.
